Measured values reported in the DeepSol protein solubility set.

experiment: soluble on expression in E. coli; label from the status in PepcDB or PDB records

Sequence | soluble on expression in E. coli
MGSDKIHHHHHHMLNPREIRTIEDAKRIVEERQLTHVKVGLFDIDGVMLGKYMSRNKFFSALEHGFAFCDVILGWDSKDKLYDNVKYTGWHTGYPDASVRIVPSTCREILFEENQLLFMAEFSQAAEAICPRGILRRVINKAAGMGYDVYAALEYEFFVFDETPDSVRAKGFRNLKPVTPDNFGYSIIRNTVHAEFYHQILTMAEKMDFPIEGLHTETGPGVLEAAIAVDDAEAAGDKAALFKTFMKILAQRNNKMATFMAKWSGDYPGQSGHIHLSLRDRDGGKSAFYESGREYNMSKIQRHFLAGQQKLMPEFLAMLSPTVNSYSRLIPGYWAPTEATWGVENRTTALRVIPGSDKSQRIEYRLGSADANPYLALAAAIGSGLYGIENELEPEAEVKGNSYEQHHSPALALPRTLWESAQNLKNSSAAYELFGQEFVEHFAASREWEEREFRKHITDWELDRYFEII | not soluble
LLTLSDIGLSVHRYSNRLDVFTQALEGGKALGDVSVDVYDDNGKVVAQGKTDSDGHARLPLPAKAAVVLAHKDEQTSMLRLNSSALDLAEFDISGPQAHPLQFFIFGPRDLYRPGETVLLNGLLRDSDGKNVKPQPITVEVRRPDDQVSRKFVWEADSSGFYQYQLQLAEEAPTGRWQLVFDLGDGKPQLYEFKVEDFLPERLALELKGSDAPVAPADNPEFDITGRYLYGAPASGNTLTGQVYVRPLREAVAKLPGYQFGSITE | not soluble
MSGLDDRKKLTHAKNRKPLNDIPKSAENRPNTRSTSSRRGAEKDVPITFIGSSRTVKADLPEFTNTRSRRPLHSESKKELSRNPVSRGEEHSSSLPKSSPESSVSVMSSNASLWSACTEEVNKIGVCAKRESRNLRVYKMKSFTSNMEQILSNDNQLAPTVIRILNSRNSWCLNSCHACLTFIMENITSDNYGKRSACLKALASITNSLLDTIIGFASTKTRRIGVDVVAEERAAKATECIHNFRKIVKNRDKIYKQIDQETIYKLDAILERLKKVSSHK | not soluble
SELRPSGDSGSSDVDAEISDGFSPLDTSHRDVADEGSLLRRAEMYQDYMKQVPIPTNRGSLIPFTSWVGLSISMKQLYGQPLHYLTNVLLQRWDQSRFGTDSEEQRLDSIIHPTKAEATIWLVEEIHRLTPSHLHMALLWRSDPMYHSFIDPIFPEK | soluble
MSLTGNAQAATIADPSTLVVDTVGPVLTIGLNRPKKRNALNDGLMAALKDCLTDIPDQIRAVVIHGIGDHFSAGLDLSELRERDATEGLVHSQTWHRVFDKIQYCRVPVIAALKGAVIGGGLELACAAHIRVAEASAYYALPEGSRGIFVGGGGSVRLPRLIGVARMADMMLTGRVYSAAEGVVHGFSQYLIENGSAYDKALELGNRVAQNAPLTNFAVLQALPMIAEANPQTGLLMESLMATVAQSDQEAKTRIRAFLDHKTAKVREGHHHHHH | soluble
MSGSTHTTERGTGRAAEAAPPATDRFACYVYGIVPEDVEVSPGTVGVGEPAGQVTLVRHGEIAALVSPVDVDRPLGRASDLVAHERLLDGAAAEVPVLPFRFGAVLTSPEAVVEELLAPHHDQFAAALRQLEGKAQHVLKARYAERPVLLEILRENAEARRLRDRIRDLPEDATRTERIRLGELITQAIEAKREADTQAVLDRFASCTVAANVRDPSHERDAAHVAFLVEHAKADEFAEAVEELSDEWADRVEVRVLGPMAPYDFVVAEG | not soluble
MGSDKIHHHHHHMPRIHFNPDGRRSPTEFEPVTVHHRKPPLDGIISSHRHNWSQLTCPLKGSMRVTTERQVWTVTSFRAVWIPPGVDHELTMVGATEFHAVFIDPQHSPLPANQCCVVDVSPLMRELMQWLGADYGPATDHSRRLTDVLLEEVRRATRRTSALVLPGDRRLKSLCEALMEDPGSTLTLGEWAHRTGASERTLARLFQIELGTTFGAWRQQLRLSCAVDLLRSGLSLSRIAADLGYADSAAFSTMFKRAFGVAPSRYHASSAQAMN | not soluble
MGSDKIHHHHHHKIEELTAVPLQIGYEKTLHLIFPTEVKYYSIGGDYVIGEKVVNCPGIIRLKAAEENFPGETTLSVVTADTKFYSYSISYNAHPAQSYVRIGGEAPTPHTLPVGKEKQLFLIFPAGITYVDYGSTNVEVDKAEGVDNILAVKAVQPYKEDTNISVVLEGGKFYTFDLRYVPAPERFSFVIDKEDTQRVAILDEKERSYGQKERIREAVAKRTPLDLGLRDKNSGMEFEVGNIFIDGDVLLLRMTLTNRTQIGYTTDFMRFYIQDAKIRKKTAVQQLEQNILFTFDYPEEIPAHESRTFTVAMNKFTIPDKKRLIIEIQERNGGRHFLYKLKNKSLLTAEEVFRSRKQQETEDEADKILRRIAR | not soluble
MRTQTFPPSSSSSRTTHPKKNRHSSNSSSMALVTPAKSSTGAAPKQSSQSGWDYWTRVYSDDAQTTGTPRDVRISDMLSSESLIRAKLLFLNVPSLPSAHKNIILNLVKRELNHDISIQDVVVVPPAKWFLNFYRPEDALKVMKHLNGYSYRGHILAVRFCYPDGTYGDESALTELVQCTNSAKGRILEKKDIVQDTFAVECWTKTEFDSLKVFEKELTNLLKAHAYLPYHTVLQSMRNLFTCKVQSELSSMFISDALAQWPTGLIRIFNRNVKVVSNTMCLSSSSYYTQRIHDSALEGGCSVHRNSWEPTVPDDIRSEVQLIQYTNSFLGHFGPQNIDVDIPIRILAQSLRGTWPKTGPKLAALLTEISSGFVLINRVLYLSSNLHHHEKIIDNLACFQDDCTDVYFLPLSCTTEDQKGKTVDYEDI | not soluble
EKQSIHRTQLEALDSVITDLETSAQKGISLTEPEIFASLLETCYSLRAIDHGVRVHHLIPPYLLRNNLGISSKLVRLYASCGYAEVAHEVFDRMSKRDSSPFAWNSLISGYAELGQYEDAMALYFQMAEDGVKPDRFTFPRVLKACGGIGSVQIGEAIHRDLVKEGFGYDVYVLNALVVMYAKCGDIVKARNVFDMIPHKDYVSWNSMLTGYLHHGLLHEALDIFRLMVQNGIEPDKVAISSVLARVLSFKHGRQLHGWVIRRGMEWELSVANALIVLYSKRGQLGQACFIFDQMLERDTVSWNAIISAHSKNSNGLKYFEQMHRANAKPDGITFVSVLSLCANTGMVEDGERLFSLMSKEYGIDPKMEHYACMVNLYGRAGMMEEAYSMIVQEMGLEAGPTVWGALLYACYLHGNTDIGEVAAQRLFELEPDNEHNFELLIRIYSKAKRAEDVERVRQMMVDRGLET | soluble
MGHHHHHHGGHMSLITAEECRTYKEFVDLYQSYLYPLLGARLSRMYSPKNKVIIDMGTGPGYLSIQLAKRTNAHVHAVDINPAMHEIAQEEAKKSGVSSLISFDLEDVHHLSYADQYADFIVSYSCLHHWEDVVKGLKECYRVLAPGGKIVILDTFNPQGSHLEIMRKQIKEPEYFRFVREAFEESYSFEDIHQFVQDAGIPNYSLETFHFLPEDFIESLDELEDAPLWEQNDQSTDHEIESVTWMLTIEKEKEGALEGGS | soluble
MGSDKIHHHHHHMIKIAIVGFGTVGQGVAELLIRKREEIEKAIGEFKVTAVADSKSSISGDFSLVEALRMKRETGMLRDDAKAIEVVRSADYDVLIEASVTRVDGGEGVNYIREALKRGKHVVTSNKGPLVAEFHGLMSLAERNGVRLMYEATVGGAMPVVKLAKRYLALCEIESVKGIFNGTCNYILSRMEEERLPYEHILKEAQELGYAEADPSYDVEGIDAALKLVIIANTIGVKASYEDVEVTGITQITPEAFQVAAEKGYTIRLIAEVSREKLKVSPRLVPFHHPLAIKGTMNAAMFKTDTAGSIFVAGRGAGKEETASAILSDLYEIYAGPR | not soluble
MSLDKKAVFADVAEKDASFINENYYISPSLDTLSSYSLLQLRKVPHLVVGHKSYGKIEFLEPVDLAGIPLTSLGGVIITFEPKTCIIYANLPNRPKRGEGINVRARITCFNCYPVDKSTRKPIKDPNHQLVKRHIERLKKNPNSKFESYDADSGTYVFIVNHAAEQTEGHHHHHH | soluble
GDLVGPGCAEYAAANPTGPASVQGMSQDPVAVAASNNPELTTLTAALSGQLNPQVNLVDTLNSGQYTVFAPTNAAFSKLPASTIDELKTNSSLLTSILTYHVVAGQTSPANVVGTRQTLQGASVTVTGQGNSLKVGNADVVCGGVSTANATVYMIDSVLMPPA | soluble
MSLDMKEWEIFYNKIMEDFGFDKDKDVESAVILNNILENANTIPVDKLKDIIEGREVFIFGAGPSIKKHINILKELREINYKNPIIVADGACKAFLEENIIPDIIVSDLDGDLEALFECNRKGSIIVVHAHGDNIEKIKKYVPKLKNVVGSCQIPNYKELNLRNVINFGGFTDGDRCCFLAYHFKAKKLILGGMDFGIYITKYSRPNIKEDIAIGDEIKIKKLEYAKTLINYLKDKIEIEFLKEGHHHHHH | soluble
MSLEILTAGPMLTVQDAGRFGLRHMGVSPAGPIDRAAMALANALVGNDPGAAALEFAGPAGRFRCDRPVRFAVAGADCPLRIDARTVSPGESHRLNPGETLTVGVPEGAVWAYLAFSGAIASPEVLGSRATHLRSGVGGRALGAGDRLPLGEDDPEAPCLRPGLRLEAAAPFRETGPIRLILGPQDDHFAPEVIARLTGCDFTVTPQRDRMAMVLGGVELPAERGHDIVSDGTVPGSVQVPGSGTPLVLLAESQTTGGYPKIGTVASVDLARLAQMPVGARFRFALISAREGEDLWIARQAR | not soluble
MRTLPILLLVIVGVVYCYPLNEDNVDLESDVAEMEGAELDRVKRASDHKLEKKLDEIMEKVEKIKDKIEENKEKREKKNKKKGNKKDEDEEEEEDKDKKKKDKKKNKDSEEEEDKKKDKKKKNDSSDESEEENKKRKNKRKN | not soluble
MGSDKIHHHHHHMEETVQRIEPARLEDVAEPISDALAELSASSAVLGAKLHPRTAANLADLVRIMNTYYSNLIEGHNTRPRDIERALAGEFDKDQERRNLQVEAAAHVRLQGEIDRLAAEGQLPEPASLDFLRWLHAEFYRDADEAMLRIRGPDREFLMVPGRWRSQPEHDVTVGRHQPPSSDRVEAFMEHFASRYRFQRTGKAARILAIPAAHHRFNYIHPFPDGNGRVSRLMSHAMAHEAGIAAHGLWSISRGLARGLESRGDYKRMMDHADMPRQGDRDGRGNLSMRALADFTLWFLRVCIDQVSFMSSLFDLNQLARRLQRFVQRYDLKPEAFRLLEEALLRGEFDRGEASRIAGLPERTARRVFTEVLELGLLASDTPKGPVSLRFPVDTLDELFPKLFPET | not soluble
MSRLSEPSPYVEFDRRQWRALRMSTPLALTEEELVGLRGLGEQIDLLEVEEVYLPLARLIHLQVAARQRLFAATAEFLGEPQQNPDRPVPFIIGVAGSVAVGKSTTARVLQALLARWDHHPRVDLVTTDGFLYPNAELQRRNLMHRKGFPESYNRRALMRFVTSVKSGSDYACAPVYSHLHYDIIPGAEQVVRHPDILILEGLNVLQTGPTLMVSDLFDFSLYVDARIEDIEQWYVSRFLAMRTTAFADPESHFHHYAAFSDSQAVVAAREIWRTINRPNLVENILPTRPRATLVLRKDADHSINRLRLRKL | soluble
TAVEPLALIRADGPTLPARGMHKPALCIIAQGRKEVQLAEERYIYDPLHYLVVSVTLPLAGQVIDASPDAPYLCVRLDIDPAEITQLISDAGPMEVASRRGDRGLYVDRIDASLLDAVLRLIHLLDSPRDIPMLAPLILREIFYRLLRSGQGQRL | not soluble
MKHESTKIPLVIFMHIPKTGGITLRNILDQQYRSEHILRLPQKNKLDNLLQKKGANIKKLQCVYGHHRFGVHEYFQQPFTYITMLRHPVERIISTYYFILQNERNRMHQKVKPLTFEQFVQSTDPDLQVPLTNHQTRYLSGERKPNLNKALQHMDTHFSVVGITELYNESLFIMKKKLGWDHISYQKKNVTKKRKRQTDIGLDTIEIIKRKNPLDLHLYETAKEKLQEHIKRLDSGARKELQQFLQDQNGFGPHGMAGDPLEHHHHHH | soluble
